Reference: US8790905B2, “Fructosyl peptide oxidase” (Kyowa Medex Co., Ltd, priority 2008, dated 2014)
Residue numbers refer to the chain shown, from its start.

B1: Emericella nidulans KY125 fructosyl peptide oxidase variant FPOX-9 (Ser71Tyr, Ile94Met, Glu104Lys, Lys109Arg, Phe269Ile), SEQ ID NO: 1 (Aspergillus nidulans; … (protein)
chain: MAPRANTKIIVVGGGGTMGSSTALHLLRAGYTPSNITVLDTYPIPSAQSAGYDLNKIMSIRLRNKPDLQLYLEALDMWKNDPLFKPFFHNVGQMDVSSTEEGIKGLRMRYQSLLDAGIGLEKTNFLLESEDEILAKAPHFTREQIKGWKGLFCGDGGWLAAAKAINAIGQFLKEQGVKFGFGGAGTFKKPLFADADEKTCIGVETVDGTKYYADKVVLAAGAWSSTLVDLEEQCVSKAWVFAHIQLTPAEAAAYKNTPVIYDGDYGFFIEPNENGIIKVCDEFPGFTHFKMHQPYGSPVPKPISVPRSHAKHPTDTYPHASEVTIKKAINRFLPRFNDKELFNRAMCWCTDTADANLLVCEHPRWKGFYLATGDSGHSFKLLPNIGKHVVELLEGRLESVFKDAWRWRPGSGDALKSRRAAPAKDLADMPGWRNEAKM
B2: Emericella nidulans KY125 fructosyl peptide oxidase variant FPOX-15 (FPOX-9 with Met58Phe, Ser59Gly, Gly105Lys, Gly183Glu, Asn272Asp, Pro302Leu), SEQ ID NO: 3 … (protein)
chain: B1 chain with M58F, S59G, G105K, G183E, N272D, P302L

Assays:
Format in all cases: biochemical, Emericella nidulans KY125
[1] = substrate: CC(C)[C@H](NCC1(O)OC[C@@H](O)[C@@H](O)[C@@H]1O)C(=O)N[C@@H](Cc1c[nH]cn1)C(=O)O; test: Km values of the fructosyl peptide oxidase FPOX-9 towards each type of substrate; conditions: other: Tris buffer (pH 7.5), 37° C.
Experimental: (§1) Substrate specificity of the novel FPOX-9 obtained in Example 2 to glycated peptides and/or glycated amino acids were measured using the following Reagent 1 to Reagent 3.
(§2) Herein, the FPOX-9 solution used was the one prepared in Example 3.
(§3) As substrates, glycated peptide α-FVH as well as glycated amino acids ε-FK and α-FV were used.
(§4) α-FVH solutions and α-FV solutions were prepared using Tris buffer to obtain each of the following concentrations in Reagent 3: 0, 0.05, 0.1, 0.5, 1, 2, 5, and 10 mmol/L. ε-FK solutions were prepared using Tris buffer to obtain each of the following concentrations in Reagent 3: 0, 1, 2, 5, 10, 20, 40, 50, 80, and 100 mmol/L.
(§5) 170 μL of Reagent 2 was added to 10 μL of Reagent 1, and after the reaction at 37° C. for five minutes, 20 μL of Reagent 3 was added, and the reaction was further continued at 37° C. for five minutes, a total of ten minutes. The absorbance at 546 nm (main wavelength)/800 nm (sub-wavelength) for 0 mmol/L at 5.4 minutes after starting the reaction was defined as A0′ (Abs), and the absorbance at 546 nm (main wavelength)/800 nm (sub-wavelength) for each substrate concentration at 5.4 minutes after starting the reaction was defined as A0^x (Abs), and ΔA0 was calculated according to Equation (I). (Mathematical Expression 1) ΔA0=A0^x−A0′(Abs) (I)
(§6) The absorbance at 546 nm (main wavelength)/800 nm (sub-wavelength) for 0 mmol/L at 6.6 minutes after starting the reaction was defined as As′ (Abs), and the absorbance at 546 nm (main wavelength)/800 nm (sub-wavelength) for each substrate concentration at 6.6 minutes after starting the reaction was defined as As^x (Abs), and ΔAs was calculated according to Equation (II). (Mathematical Expression 2) ΔAs=As^x−As′(Abs) (II)
(§7) The enzyme activity (U/mL) for each substrate concentration was calculated by substituting the obtained ΔA0 and ΔAs total amount of reaction solution (0.2 mL), molar extinction coefficient of TOOS (39,200), reaction time (1.2 minutes), and the light path length of the reaction cuvette (0.5 cm) into Equation (III). […]

[2] = substrate: N[C@@H](CCCCNCC1(O)OC[C@@H](O)[C@@H](O)[C@@H]1O)C(=O)O; test: as above; conditions: other: Tris buffer (pH 7.5), 37° C.
Experimental: as §1, §2, §3, §4, §5, §6, §7

[3] = substrate: CC(C)[C@H](NCC1(O)OC[C@@H](O)[C@@H](O)[C@@H]1O)C(=O)O; test: as above; conditions: other: Tris buffer (pH 7.5), 37° C.
Experimental: as §1, §2, §3, §4, §5, §6, §7

[4] = substrate: CC(C)[C@H](NCC1(O)OC[C@@H](O)[C@@H](O)[C@@H]1O)C(=O)N[C@@H](Cc1c[nH]cn1)C(=O)O; test: Km values of the fructosyl peptide oxidase FPOX-15 towards each type of substrate; conditions: 37° C.
Experimental: (§8) The substrate specificity of FPOX-15 obtained in Example 2 to glycated peptides and/or glycated amino acids was measured using the following Reagent 1 to Reagent 3.
(§9) Herein, for the FPOX-15 solution, a solution produced by four-fold dilution of the solution obtained in Example 3 was used.
as §3
(§10) α-FVH solutions and α-FV solutions were prepared using distilled water to obtain the following concentrations in Reagent 3: 0, 2, 2.5, 3, and 3.66 mmol/L. ε-FK solution was prepared using distilled water to obtain the following concentrations in Reagent 3: 0, 20, 30, 40, and 50 mmol/L.
as §5, with “150” for “170”, “5” for “10”, “wavelength)/700” for “wavelength)/800”
as §6, with “wavelength)/700” for “wavelength)/800”
(§11) The enzyme activity (U/mL) for each substrate concentration was calculated by substituting the obtained ΔA0 and ΔAs, total amount of reaction solution (0.2 mL), molar extinction coefficient of EMSE (33,800), reaction time (1.2 minutes), and the light path length of the reaction cuvette (0.5 cm) into Equation (III). (Mathematical Expression 3) Enzyme activity(U/mL)={(ΔAs−ΔA0)×total amount of reaction solution(mL)}/{molar extinction coefficient ε/1000×amount of enzyme solution(mL)×0.5×reaction time(min)×light path length(cm)} (III)
(§12) For each of the substrates α-FVH, ε-FK, and α-FV, a plot was produced with substrate concentration (mmol/L) on the horizontal axis and the corresponding enzyme activity (U/mL) on the vertical axis, and the substrate concentration corresponding to ½ of the maximum enzyme activity was calculated as the Km value (Michaelis constant).

[5] = substrate: N[C@@H](CCCCNCC1(O)OC[C@@H](O)[C@@H](O)[C@@H]1O)C(=O)O; test: as above; conditions: 37° C.
Experimental: as §8, §9, §3, §10
as §5, with “150” for “170”, “5” for “10”, “wavelength)/700” for “wavelength)/800”
as §6, with “wavelength)/700” for “wavelength)/800”
as §11, §12

[6] = substrate: CC(C)[C@H](NCC1(O)OC[C@@H](O)[C@@H](O)[C@@H]1O)C(=O)O; test: as above; conditions: 37° C.
Experimental: as §8, §9, §3, §10
as §5, with “150” for “170”, “5” for “10”, “wavelength)/700” for “wavelength)/800”
as §6, with “wavelength)/700” for “wavelength)/800”
as §11, §12

[7] = other: pH 6.0, sodium dihydrogen phosphate, pH 6.0
[8] = other: pH 7.0, sodium dihydrogen phosphate, pH 7.0
[9] = other: pH 8.0, sodium dihydrogen phosphate, pH 8.0

Row | Protein | Km [1] [µM] | Km [2] [µM] | Km [3] [µM] | Km [4, 7] [µM] | Km [4, 8] [µM] | Km [4, 9] [µM] | Km [5, 7] [µM] | Km [5, 8] [µM] | Km [5, 9] [µM] | Km [6, 7] [µM] | Km [6, 8] [µM] | Km [6, 9] [µM]
1 | B1 | 500 | 4000 | 600 |  |  |  |  |  |  |  |  | 
2 | B2 |  |  |  | 400 | 500 | 800 | 23200 | 19200 | 9600 | 200 | 300 | 300
